This is an account of results in patent publication US12559740B2, “Process for the direct enzymatic conversion of amino sugars; enzyme and compositions for use in the process” (GLYCOMICS AND GLYCAN BIOENGINEERING RESEARCH CENTER …, priority 2021, dated 2026).

This data set has as its system N[C@H]1C(O)O[C@H](CO)[C@@H](O)[C@@H]1O. Briefly: Kinetic analysis of Ef-GPDA with glucosamine (conversion of glucosamine to fructose, photometric at 505 nm after resorcinol derivatization). Type of data set: biochemical, Enterococcus faecalis. Conditions: other: substrate glucosamine (3 to 140 mM solutions, 30 μL), MES buffer pH 7.0, MgCl2, 40° C., 10 h. On the procedure: Reaction mixtures (50 μL) were centrifuged at 12000 g for 10 min at room temperature, and 40 μL samples of the supernatant were taken and mixed with 35 μL conc. HCl and 5 μL of resorcinol-thiourea reagent (consisting of 0.1% (w/V) resorcinol and 0.25% (w/V) in glacial acetic acid). The mixed samples were incubated at 80° C. for 10 min and then centrifuged at 12000 g for 10 min at room temperature. The supernatants (50 μL) were then transferred to 96 microplate and the absorbance at λ=505 nm measured with a microplate photometer (Thermo Multiskan).
Genes encoding the wild-type or mutant variants of GDPA were synthesized in an E. coli codon-optimized form (Genscript) and delivered in a pUC19 vector with ampicillin resistance. The protein-encoding insert was cut via Ndel and Xhol restriction enzymes (Takara) and ligated in a pET30a expression vector via T4 Ligase (Takara). The GPDA enzymes were prepared as follows: a fresh single colony from an LB agar plate supplemented with […] Kanamycin and used to grow E. coli strain BL21 comprising the respective plasmid was used to inoculate 5 mL of LB liquid medium with the same concentration of Kanamycin. Following incubation of said culture over night at 120 rpm and 37° C. 2 mL of the overnight culture was used to inoculate 400 mL of the same medium in a 2 L flask. […]

As usually defined, the Km is the substrate concentration at which the rate is half of its maximum. Broadly, the Vmax is the top rate of the reaction or transport when substrate is in excess. With “Ef-GPDA, glucosamine-6-phosphate deaminase from Enterococcus faecalis, wild type, SEQ ID NO: 1 (Enterococcus faecalis V583)”, the Km came to 21.8 ± 2.3 mM and the Vmax came to 4.0 ± 0.2 µmol/min.
